In paper PMC9966811, “Comparison of Glyphosate-Degradation Ability of Aldo-Keto Reductase (AKR4) Proteins in Maize, Soybean and Rice” (International Journal of Molecular Sciences, 2023):

Experiments:
Assay in all cases: purified protein
Conditions in all cases: NADPH 0.1 mM, pH 7.4, 25 °C, 10 mM beta-mercaptoethanol
purified protein [1] = substrate: O=Cc1ccccc1; type: biochemical, Echinochloa colona
purified protein [2] = substrate: O=Cc1ccccc1; type: biochemical, Oryza sativa
purified protein [3] = substrate: O=Cc1ccccc1; type: biochemical, Zea mays

B1: EcAKR4 (Echinochloa colona) (protein)
chain: MARHFVLNTGAKIPSVGLGTWQSDPGVVGDAVYAAVKAGYRHIDCARVYGNEKEIGLALKKLFEEGVVKREDLFITSKLWNDHHAPEDVPEALNESLKDLQLDYLDLYLIHWPFRVKKGTNTSPENFITPDIPATWGAMEKLYDAGKARAIGVSNFSSKKLGDLLAVARVPPAVDQVECHPGWQQTKLHNFCQSTGVHLSAYSPLGSPGTTWMNGNVLKEPVIISIAEKLGKTPAQVALRWNIQMGHSVLPKSTNEERIKQNLDVYDWSIPDDLLAKFSEIKQARLLRGNFIVNPQSVYKTHEELWDGEL
notes: full CDS from leaf cDNA in pET32a as printed (about 40 kD on gel), E. coli BL21, Ni-NTA
- Km (purified protein [1]): 870 ± 250 µM
- kcat (purified protein [1]): 0.7052 ± 0.0253 s⁻¹

B2: OsAKR4-1 (Oryza sativa Japonica Group) (protein)
chain: MAKHFVLNTGAKIPSVGLGTWQSDPGVVGDAVYAAVKAGYRHIDCARMYKNENEVGIALKKLFEEGVVKREDLFITSKLWCDCHAPEDVPESLDKTLSDLQLEYLDLYLIHWPFRVKKGSGISNTEDYIPPDIPSTWGAMEKLYDSGKSRAIGVSNFSSKKLGDLLAVACVPPAVDQVECHPGWQQTKLHNFCQSTGVHLSAYSPLGSPGSTWMNSNVLKESVIISIAEKLGKTPAQVALHWNIQMGHSVLPKSVTEERIKQNIDVYDWSIPEDLLVKFSEIKQVRLLRGDVIVNPHSVYKTHEELWDGEI
notes: full CDS from leaf cDNA in pET32a (vector tag, about 50 kD), E. coli BL21, Ni-NTA
- Km (purified protein [2]): 2476 ± 540 µM
- kcat (purified protein [2]): 0.676 ± 0.0363 s⁻¹

B3: ZmAKR4 (Zea mays) (protein)
chain: MARHFVLNTGAKIPSVGLGTWQSDPGVVGNAVYAAVKAGYRHIDCARVYGNEKEIGLALKKLFEEGVVKREDLFITSKLWNDHHAPEDVPEALNDSLNDLQLEYLDLYLIHWPFRVKKGTNTSPENFVTPDFPATWGAMEKLYDAGKARAIGVSNFSSKKLGDLLAVARVPPAVDQVECHPGWQQTKLHSFCQSTGVHLTAYSPLGSPGTTWMNGNVLKEPIIISIAEKLGKTSAQVALRWNIQMGHSVLPKSTNEERIKQNLDVYDWSIPDDLLAKFSEIKQARLLRGNFIVNPESVYKTHEELWDGEL
notes: as for B2
- Km (purified protein [3]): 1060 ± 290 µM
- kcat (purified protein [3]): 0.7522 ± 0.0293 s⁻¹
